Data published in US20220331426A1, “METHODS OF TREATING CANCER USING TIGIT INHIBITORS AND ANTI-CANCER AGENTS” (Genentech, Inc., priority 2014, published 2022).

T1: human TIGIT (Homo sapiens, UniProt Q495A1)
T1 sequence (Q495A1 22-244): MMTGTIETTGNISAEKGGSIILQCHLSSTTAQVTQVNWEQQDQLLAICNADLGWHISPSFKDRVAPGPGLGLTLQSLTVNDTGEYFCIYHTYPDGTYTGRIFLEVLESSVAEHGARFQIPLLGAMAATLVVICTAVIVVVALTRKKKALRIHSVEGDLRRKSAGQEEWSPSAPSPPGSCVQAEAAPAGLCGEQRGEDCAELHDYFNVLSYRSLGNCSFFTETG

B1: 1F4: hamster-anti-mouse anti-TIGIT antibody; light chain SEQ ID NO:14, heavy chain SEQ ID NO:16 (antibody, V domains shown)
VH: EVQLQQSGPELVKPGTSMKISCKASGYSFTGHLMNWVKQSHGKNLEWIGLIIPYNGGTSYNQKFKGKATLTVDKSSSTAYMELLSLTSDDSAVYFCSRGLRGFYAMDYWGQGTSVTVSS
VL: DVVLTQTPLSLSVSFGDQVSISCRSSQSLVNSYGNTFLSWYLHKPGQSPQLLIFGISNRFSGVPDRFSGSGSGTDFTLKISTIKPEDLGMYYCLQGTHQPPTFGPGTKLEVK
B2: 10A7: hamster-anti-mouse anti-TIGIT antibody; light chain SEQ ID NO:13, heavy chain SEQ ID NO:15 (antibody, V domains shown)
VH: EVQLVESGGGLTQPGKSLKLSCEASGFTFSSFTMHWVRQSPGKGLEWVAFIRSGSGIVFYADAVRGRFTISRDNAKNLLFLQMNDLKSEDTAMYYCARRPLGHNTFDSWGQGTLVTVSS
VL: DIVMTQSPSSLAVSPGEKVTMTCKSSQSLYYSGVKENLLAWYQQKPGQSPKLLIYYASIRFTGVPDRFTGSGSGTDYTLTITSVQAEDMGQYFCQQGINNPLTFGDGTKLEIKR

Target: T1, human TIGIT
Test: binding of anti-TIGIT antibodies to human TIGIT
Settings: hamster-anti-mouse anti-TIGIT antibodies; qualitative statement, no method given

Molecule	specific binding to human TIGIT
B1	specifically bound
B2	specifically bound
